Our source for the EC50 and ELISA A450 values is US20140363441A1 (priority 2013, published 2014).

The target of assay [1] is 23 amino acid synthetic M2e peptide of A/Fort Worth/1/50 (influenza A virus H1N1 A/Fort Worth/1/50). Kind of assay: ELISA on 23mer M2e peptide coated at 1 µg/ml. (In general: ELISA stands for enzyme-linked immunosorbent assay.)
Assay [2] addresses SEQ ID NO 307. As to the kind of experiment: peptide ELISA, mAb 5 µg/mL.
Assay [3] deals with SEQ ID NO 308. As to the kind of experiment: peptide ELISA, mAb 5 µg/mL.
The target in assay [4] is SEQ ID NO 273. As to the kind of experiment: peptide ELISA, mAb 5 µg/mL.

The molecule “chimeric mouse V-region/human IgG1 kappa 14C2 antibody” registered an EC50 in assay [1] of 0.01 µg/mL.

B1: 23K12 (TCN-031) (antibody, V domains shown)
VH: EVQLVESGGGLVQPGGSLRISCAASGFTVSSNYMSWVRQAPGKGLEWVSVIYSGGSTYYADSVKGRFSFSRDNSKNTVFLQMNSLRAEDTAVYYCARCLSRMRGYGLDVWGQGTTVTVS
VL: DIQMTQSPSSLSASVGDRVTITCRTSQSISSYLNWYQQKPGKAPKLLIYAASSLQSGVPSRFSGSGSGTDFTLTISGLQPEDFATYYCQQSYSMPAFGQGTKLEIK
As for B1, the ELISA A450 in assay [2] turned out to be 0.58; in assay [3] it was 0.62; in assay [4], 0.22.

In general, EC50 refers to the concentration that produces a half-maximal response. High values mean weaker potency, low ones greater potency.
